Literature values in PMC12406711.

Target: PCDH10 ECD (Homo sapiens) (UniProt Q9P2E7)

PCDH10 ECD (from UniProt Q9P2E7)
Kd: 3.6 µM
